The target of assay [1] is T1, human SIRP-α v2 D1 domain (human).
T1 construct: also called human v2
As to the kind of experiment: SPR, Langmuir fit. The method in brief:
(§1)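 Antibody clones in scFv-Fc format were captured from pre-filtered culture media onto anti-human IgG Fc, amine-coupled (about 4000 RU) on a GLC chip of a ProteOn XPR36 instrument. SIRP analytes were flowed in PBS pH 7.4 with 0.01% Tween-20 at 25° C. Data were double-referenced against interspot and buffer-blank responses. Dissociation rate constants (koff) were derived by fitting a 1:1 Langmuir model.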
In general terms: In SPR one partner is held on a chip, and binding of the other changes the refractive index at the surface.

Assay [2] deals with T2, high affinity SIRP-α D1 variant CV1-3.
T2 chain: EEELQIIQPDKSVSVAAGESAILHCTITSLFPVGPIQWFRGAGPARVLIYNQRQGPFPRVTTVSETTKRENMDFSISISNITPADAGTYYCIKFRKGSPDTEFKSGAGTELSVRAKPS
The assay can be described thus: SPR, Langmuir fit. The method, boiled down: as §1

The target of assay [3] is T3, human SIRPβ isoform 1 (human, UniProt O00241 30-148).
T3 construct: also called SIRPb; sirpb1
The assay can be described thus: SPR, Langmuir fit. The method, boiled down: as §1

Assay [4] addresses T4, cynomolgus SIRP-α D1 domain (cyno1) (cynomolgus monkey, UniProt Q5TFQ8 30-148 (human entry), limits assumed).
T4 chain: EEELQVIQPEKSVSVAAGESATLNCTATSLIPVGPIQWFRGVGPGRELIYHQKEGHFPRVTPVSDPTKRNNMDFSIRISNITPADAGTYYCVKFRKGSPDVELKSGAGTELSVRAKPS
As to the kind of experiment: SPR, Langmuir fit. The method in brief: as §1

Assay [5] has as its target T5, cynomolgus SIRP-α D1 domain (cyno2) (cynomolgus monkey, UniProt Q5TFQ8 30-148 (human entry), limits assumed).
T5 chain: T4 chain with E19D, A27V, T28S, V42A, H51N, Q52L, P62A
As to the kind of experiment: SPR, Langmuir fit. The method, boiled down:
as §1

Assay [6] has as its target T6, human SIRP-α v1 D1 domain (human, UniProt P78324 31-149).
T6 construct: also called human v1
As to the kind of experiment: SPR, Langmuir fit. The method in brief: as §1

In assay [7] the target is T7, NOD mouse SIRP-α D1 domain (mouse (NOD strain)).
T7 chain: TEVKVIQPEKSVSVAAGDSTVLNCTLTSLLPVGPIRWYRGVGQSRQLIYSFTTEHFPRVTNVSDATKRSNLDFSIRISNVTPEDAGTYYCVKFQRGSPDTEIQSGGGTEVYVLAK
As to the kind of experiment: SPR. The method in brief: as §1

The target in assay [8] is T8, mouse 129 SIRP-α D1 domain (mouse (129 strain), UniProt P97797 32-150).
T8 construct: also called m129
T8 chain: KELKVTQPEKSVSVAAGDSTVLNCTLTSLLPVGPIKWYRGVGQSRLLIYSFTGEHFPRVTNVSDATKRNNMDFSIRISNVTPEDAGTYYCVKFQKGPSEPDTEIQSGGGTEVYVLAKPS
As to the kind of experiment: SPR. The method, boiled down: as §1

Assay [9] deals with T9, C57BL/6 mouse SIRP-α D1 domain (mouse (C57BL/6 strain), UniProt P97797 32-148).
T9 sequence: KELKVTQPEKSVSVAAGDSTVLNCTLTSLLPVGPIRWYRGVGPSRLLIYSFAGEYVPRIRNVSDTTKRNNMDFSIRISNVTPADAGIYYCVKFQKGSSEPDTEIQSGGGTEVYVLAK
The assay can be described thus: SPR. The method in brief:
as §1

The target of assay [10] is T10, human SIRPγ isoform 1 (human, UniProt Q9P1W8 29-147).
T10 construct: also called SIRPg; sirpg
The assay can be described thus: SPR, Langmuir fit. The method in brief:
as §1

The target of assay [11] is T3, human SIRPβ isoform 1. As to the kind of experiment: SPR. The method, boiled down:
as §1

Assay [12] deals with T10, human SIRPγ isoform 1. As to the kind of experiment: SPR. The method, boiled down: as §1
In assay [13] the target is T4, cynomolgus SIRP-α D1 domain (cyno1). The assay can be described thus: SPR. The method, boiled down: as §1

Changes are numbered by the printed parent chain.

T3 sequence (O00241 30-148 limits assumed): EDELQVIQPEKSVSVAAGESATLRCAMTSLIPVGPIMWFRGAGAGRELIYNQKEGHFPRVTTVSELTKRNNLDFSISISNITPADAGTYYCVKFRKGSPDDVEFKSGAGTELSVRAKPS
T10 sequence (Q9P1W8 29-147 limits assumed): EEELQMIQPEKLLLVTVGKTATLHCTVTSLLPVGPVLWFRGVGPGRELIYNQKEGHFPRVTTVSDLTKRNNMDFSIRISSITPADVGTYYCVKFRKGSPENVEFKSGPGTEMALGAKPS
T6 sequence (P78324 31-149 limits assumed): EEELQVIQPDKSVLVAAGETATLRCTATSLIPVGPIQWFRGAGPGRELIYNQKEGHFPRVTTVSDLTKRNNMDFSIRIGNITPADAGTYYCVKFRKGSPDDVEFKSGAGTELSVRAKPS
T1 sequence (chain, as listed by the source limits assumed): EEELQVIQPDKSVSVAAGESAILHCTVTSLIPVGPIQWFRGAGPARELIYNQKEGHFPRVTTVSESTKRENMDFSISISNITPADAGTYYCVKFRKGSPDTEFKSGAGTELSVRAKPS

B1: S191 (scFv, V domains shown)
VH: DVQLVESGGGVVRPGESLRLSCAASGFSFSSYAMNWVRQAPGEGLEWVSRINSGGGGTDYAESVKGRFTISRDNSENTLYLQMNSLRAEDTAVYYCAKQYDWNGFFDYWGLGALVTVSS
VL: ETVLTQSPATLSVSPGERATLSCRASQTVGSKLAWHQQKPGQAPRLLIYDATNRATGIPDRFSGSGSGTDFTLTISGLQTEDSAVYYCQQYYYWPPYRFGGGTKVEIK
notes: also called clone 191
Usually koff stands for the first-order rate constant of dissociation. The low end stands for a long-lived complex, the high end for a short-lived complex. For the molecule B1, the koff is 3.53e-05 s⁻¹ in [1]; 0.000295 s⁻¹ in [2]; 1.01e-05 s⁻¹ in the assay with human SIRPβ isoform 1 [3]; 5.54e-05 s⁻¹ in [4]; 1.38e-05 s⁻¹ in assay [5]; 6.67e-05 s⁻¹ in assay [6]. For the same molecule, the binding result in [7], in assay [8] and in assay [9] was “no binding (tested: Koff > 5 × 10^3 (legend))” throughout.

B2: S198 (scFv, V domains shown)
VH: B1 VH with Y32H
VL: B1 VL with G77S
B2: the koff in assay [1] was found to be 4.95e-05 s⁻¹; in [2], 0.000787 s⁻¹; in the assay with human SIRPβ isoform 1 [3], 4.72e-05 s⁻¹; in [4] it was 8.34e-05 s⁻¹; in assay [5] it was 7.73e-05 s⁻¹; in assay [6], 3.67e-05 s⁻¹. Also, the binding result in assay [7], in assay [8] and in assay [9] was “no binding (tested: Koff > 5 × 10^3 (legend))” throughout.

B3: S132 (scFv, V domains shown)
VH: B1 VH with S30R, E62D, E76K, G104S
VL: B1 VL with T52S, G77S, L78P
As for B3, the koff in assay [1] was 2.06e-05 s⁻¹; in [2], 7.95e-05 s⁻¹; with human SIRPβ isoform 1 [3], 1.01e-05 s⁻¹; with human SIRPγ isoform 1 [10], 1.05e-05 s⁻¹; in assay [4] it was 4.28e-05 s⁻¹; in assay [5] it was 7.12e-05 s⁻¹. In addition, in [6], the koff is 3.34e-05 s⁻¹. Also, the binding result in [7], in assay [8] and in [9] was “no binding (tested: Koff > 5 × 10^3 (legend))” in each case.

B4: S173 (scFv, V domains shown)
VH: DVQLVESGGGVVRPGESLRLSCAASGFAFSDHDMSWVRQGPGEGLEWVAGISLRGGVTWYADSVKGRFTISRDNSKNTLYLRLFSLRTEDTAIYYCARESWNTFFDYWGLGTLVTVSS
VL: EIVLTQSPGTLSLSPGETATLSCRASQNVRSNLAWYQQKPGQAPRLLIYDASSRATGIPDRFSGSGSGTDFTLTISSLQSEDFAVYYCQQYGNGPPLTFGGGTKVEIK
With B4, the koff is 0.00504 s⁻¹ in [1], 0.00137 s⁻¹ in [2] and 0.00112 s⁻¹ in assay [6]. Also, the binding result (with human SIRPβ isoform 1 [11]; with human SIRPγ isoform 1 [12]; in assay [8]; in assay [13]; in assay [9]) was “no binding (tested: Koff > 5 × 10^3 (legend))” each time.

B5: S174 (scFv, V domains shown)
VH: B4 VH with A28T
VL: B4 VL
As for B5, the dissociation rate constant (koff) in assay [1] stood at 0.00399 s⁻¹; in [2], 0.00189 s⁻¹; in [6], 0.00143 s⁻¹. Also, the binding result (in the assay with human SIRPβ isoform 1 [11]; in the assay with human SIRPγ isoform 1 [12]; in [8]; in assay [13]; in assay [9]) was “no binding (tested: Koff > 5 × 10^3 (legend))” in each case.

B6: S209 (scFv, V domains shown)
VH: DVQLVESGGAVVRPGESLRLSCKASGFTFTNFAMSWVRQAPGEGLEWVSGISGSDDTTYYADSVKGRFTISRDNSESTLYLQMNSLRAEDTAVYYCVKDSTVSWNTFFDYWGLGTLVTVSS
VL: ALTQPASVSANLGGTVKITCSGGYGSDDGSSSYYGWYQQKSPGSAPVILIYWDDKRPSDIPSRFSGSTSGSTTTLTITGVQAEDEAVYFCGTYDTSSGAIFGAGTTLTVL
Take B6: the koff in assay [1] was determined as 0.00401 s⁻¹; in assay [2] it was 0.00245 s⁻¹; with human SIRPβ isoform 1 [3], 6.54e-05 s⁻¹; in assay [6], 0.000659 s⁻¹. For the same molecule, the binding result (with human SIRPγ isoform 1 [12]; in assay [13]; in assay [9]) was “no binding (tested: Koff > 5 × 10^3 (legend))” throughout.

For the origin of these results see patent US20210363269A1 (ALX ONCOLOGY, published 2021).
